Results from the DeepSol protein solubility set.

assay: soluble on expression in E. coli; label from the status in PepcDB or PDB records

Sequence	soluble on expression in E. coli
MGSDKIHHHHHHMTNRYDAVIIGAGHNGLVCGAYLARKGFKVCLLERRELAGGAAVSEAVWPGYRVSTASYTMALLQPRIIDELELAKYGYEIVVPPPMLHLYGDGRSLLFRPEGERLSADIARFSEADADAYGKYRAHMARLGKMVAGMLWETPPDPADSTLSARSRLLGFAWRFRDMGEQFYDLYDVLTLSARDYLARWFESDEMIAALGFYASCGGAATSICSPGSAYVLLRGFIRDHTTSAGPAGFVRGGMGSISEAIAASGKAYGMEVRCNAPVASVEISGERATGVRLSSGELIEAGCVISNVATKVLFQQLVGAQNVPPEFLARVRQIRDRSTAFKVNLALRRLPTFKDFDARSAGFAYPAQVRLAPSVEYLERAWDAAKYGEISPRPPLVVLTPSAVDPGVAPKGKHLMSIFGQHAPYALRDGPWDDAQRERLYQITLDTLAAYAPDIRECIDDAQVLSPADLERIFALPGGHVHHGELSADQIFFRRPVQGAADYCTPVKGLYQCGASVHPGGGVTGVPGYNAAHVVVRRERH	not soluble
MSLNNPYIKMIGAHGTALGDIYGHVTLENFDNTDIYGTEINLVGQINIGETDFNLYGQVFDKSMPVWGETNTLLGLSWDKNYDNTYVQLAFAAHIVNATYKAFDSNFDEQGFNGGYAYLNISHDLSLFDQDFKFVWWQEFYFGRNEQYLELAGDMEDFGFNGQLRANWIINNNWSVGVSYRYAENNLGKKGYHDAFFYSVQYKFEGHHHHHH	not soluble
MLQITKSLSIALTEIEMTALRSQGAGGQNVNKVASAIHLRFDIGASSLPDVYKERLLNLNDQRITKDGIVVIKAQSHRTQEQNREEALKRLQGLISSVITLPKPRRPTKPTRSSQRKRLDAKTKRSAVKALRKSIDELEHHHHHH	not soluble
MGSDKIHHHHHHMKQILNTLYVMTQGAYVCLDHETVKVEVKGALQMQVPLHHLGAIVTMGNVMMSPFIMARCAEDGRALVILDRNGKFKCRVVGKTSGNVLLRQTQYEAVRDRERSAAIARNMVAGKVKNARQILMRGARETTDADESAVLRKAGDTLADALFHLKDATDIDHVRGLEGEAANAYFQVFDRMVKEEERPAFRMNGRNRRPPLDPMNALLSFLYTLLLNDCISAVEGVGLDSQMGFLHVLRPGRPSLGLDIMEEFRAVLADRLALTLINRKQITEKHFEVRPGGATYLDDAGRKEVIMAYQKRKQDEFHHPVLDQKVPFGLLPHVQARLLARHLRGDLEQYTPVLYS	not soluble
MSLETETMSQDLMQRGKAIKLAVFDVDGVLTDGRLYFMEDGSEIKTFNTLDGQGIKMLIASGVTTAIISGRKTAIVERRAKSLGIEHLFQGREDKLVVLDKLLAELQLGYEQVAYLGDDLPDLPVIRRVGLGMAVANAASFVREHAHGITRARGGEGAAREFCELILSAQGNLEAAHSVYLEGHHHHHH	soluble
MAHHHHHHMDAVKRHSQSTWPVSMPPLHAGTQEERMTGEEAGSSTKHTEGTNDRREKHRHGPHPGRRLHTSPHTHTHHRSAVSLRVRGFGPPHNKRTHRQQLTTNDKEEKRHTAATVSSSVPRPTGYGHSPAANTQHARSKLSHKVPHAEAGPHPPMTRRLTPCGHTECTDSPIERIRRPSLKAASVIDGP	soluble
IRVNTNKGGGVWESGAANSQSTSWGSGNGANSGGSRRGWGTPAQNTGTNLPSVEWNKLPSNQHSNDSANGNGKTFTNGWKSTEEEDQGSATSQTNEQSSVWAKTGGTVESDGSTESTGRLEEKGTGESQSRDRRKIDQHTLLQSIVNRTDLDPRVLSNSGWGQTPIKQNTAWDTETSPRGERKTDNGTEAWGSSATQTFNSGACIDKTSPNGNDTSSVSGWGDPKPALRWGDSKGSNCQGGWEDDSAATGMVKSNQWGNCKEEKAAWNDSQKNKQGWGDGQKSSQGWSVSASDNWGETSRNNHWGEANKKSSSGGSDSDRSVSGWNELGKTSSFTWGNNINPNNSSGWDESSKPTPSQGWGDPPKSNQSLGWGDSSKPVSSPDWNKQQDIVGSWGIPPATGKPPGTGWLGGPIPAPAKEEEPTGWEEPSPESIRRKMEIDDGTSAWGDPSKYNYKNVNMWNKNVPNGNSRSDQQAQVHQLLTPASAISNKEASSGSGWGEPWGEPSTPATTVDNGTSAWGKPIDSGPSWGEPIAAASSTSTWGSSSVGPQALSKSGPKSMQDGWCGDDMPLPGNRPTGWEEEEDVEIGMWNSNSSQELNSSLNWPPYTKKMSSKGLSGKKRRRERGMMKGGNKQEEAWINPFVKQFSNISFSRDSPEENVQSNKMDLSGGMLQDKRMEIDKHSLNIGDYNRTVGKGPGSRPQISKESSMERNPYFDKDGIVADESQNMQFMSSQSMKLPPSNSALPNQALGSIAGLGMQNLNSVRQNGNPSMFGVGNTAAQPRGMQQPPAQPLSSSQPNLRAQVPPPLLSPQVPVSLLKYAPNNGGLNPLFGPQQVAMLNQLSQLNQLSQISQLQRLLAQQQRAQSQRSVPSGNRPQQDQQGRPLSVQQQMMQQSRQLDPNLLVKQQTPPSQQQPLHQPAMKSFLDNVMPHTTPELQKGPSPINAFSNFPIGLNSNLNVNMDMNSIKEPQSRLRKWTTVDSISVNTSLDQNSSKHGAISSGFRLEESPFVPYDFMNSSTSPASPPGSIGDGWPRAKSPNGSSSVNWPPEFRPGEPWKGYPNIDPETDPYVTPGSVINNLSINTVREVDHLRDRNSGSSSSLNTTLPSTSAWSSIRASNYNVPLSSTAQSTSARNSDSKLTWSPGSVTNTSLAHELWKVPLPPKNITAPSRPPPGLTGQKPPLSTWDNSPLRIGGGWGNSDARYTPGSSWGESSSGRITNWLVLKNLTPQIDGSTLRTLCMQHGPLITFHLNLPHGNALVRYSSKEEVVKAQKSLHMCVLGNTTILAEFASEEEISRFFAQSQSLTPSPGWQSLGSSQSRLGSLDCSHSFSSRTDLNHWNGAGLSGTNCGDLHGTSLWGTPHYSTSLWGPPSSSDPRGISSPSPINAFLSVDHLGGGGESM	soluble
MAARLAASRIVHAGRGISQPTPFGKRMDRLSNRVWGEVVMPTDTKSLKVVRVMSAEPYETKEQLSPKYYPNLPMFHYLTKMLRFHGLFFDDHVVFRDVQDNLKIIRGKVVRPPIGQGKRAQLRGKK	not soluble
EPFWADLQPRVAFVERGGSLWLNCSTNCPRPERGGLETSLRRNGTQRGLRWLARQLVDIREPETQPVCFFRCARRTLQARGLIRTFQRPDRVELMPLPPWQPVGENFTLSCRVPGAGPRASLTLTLLRGAQELIRRSFAGEPPRARGAVLTATVLARREDHGANFSCRAELDLRPHGLGLFENSSAPRELRTFSLS	soluble
MNKKLMTLAVFLFSSAASAASTDATVNLVNANGTGQKIGNITITETEYGLLFTPHLSSLPAGIHGFHIHENGSCDAGMKDGKPVAALAAGGHLDPQHTNKHLGPYNPEGHLGDLPALYVNQAGNADYPVLAPRLKSISQVKGHAIMIHTGGDNHEDHPNPLGGGGARIACGVIK	not soluble
SLNTGEPAPVLSSPPPADVSTFLAFPSPEKLLRLGPKSSVLIAQQTDTSDPEKVVSAFLKVSSVFKDEATVRMAVQDAVDALMQKAFNSSSFNSNTFLTRLLVHMGLLKSEDKVKAIANLYGPLMALNHMVQQDYFPKALAPLLLAFVTKPNSALESSSFARHSLLQTLYKV	soluble
GPGSMIIWAVGTTNKAKLDSVDIAVRMCFPSYQHDVRPVAVLSIVRAQPISAEESQQGAQHRAHEALSLVPEAHYGVGLEGGLEKISDRWFECGWMYVIERSTGRCGIGSSARFEMSQKLMSKILDEGKELAEVMDEMTGETDVRSGQGAMGVLTAGYLNRAESYSHGLIFALAPFLSDHKYWD	not soluble
SNAMQVITSVKEAKQIVKDWKSHQLSIGYVPTMGFLHDGHLSLVKHAKTQDKVIVSIFVNPMQFGPNEDFSSYPRDLERDIKMCQDNGVDMVFIPDATQMYLKNFSTYVDMNTITDKLCGAKRPGHFRGVCTVLTKFFNILNPDIVYMGQKDAQQCVVVRHMVDDLNFDLKIQICPIIREEDGLAKSSRNVYLSKEERKASLAISQSIFLAEKLVREGEKNTSKIIQAMKDILEKEKLIKIDYIELVDFNTMENIENITDNVLGAVAAFVGKTRLIDNFLVQGLK	soluble
MTQMKIFVIGAHGQIGKKIVSKLVAQGDQVYAGIRQPEQAEAFEDAGAQPVQFNLMAQPEDLALAFNGMDAIVFAAGSGGQTGYDMTLMIDLDGAVKSMVAAKIAGVKRYVIISAEFTPDRSRWPRALQPYYVAKYYADEWLKNRTQLDYTILQPGTLINDAGTGKVTVNPDVGGEITRDDVATFTVQTLHTPATVGKTIALINGDTPISKAVQQA	not soluble
